This data set can be described thus: amyloid nucleation score (Sup35N fusion, yeast selection) (log enrichment); library NNK3; higher = more nucleation; inactive = no reads after selection. The procedure, abridged: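 Sup35N fusions to peptides of 20 random codons were expressed in psi-negative yeast, induced 24 hours with 100 μM copper sulfate, and grown 7 days at 30°C on medium lacking adenine and uracil. Input and output plasmid inserts were sequenced by Illumina. The nucleation score is the DiMSum log enrichment of output over input reads, centred on the mode score of non-aggregating sequences. Sequences with under 100 input reads were excluded.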

± gives the uncertainty stated by the source.

NLLRNAVFIYCKHLNLFDAM yielded an amyloid nucleation score of 0.815 ± 0.12.
In the case of NRINLDSSPLKGYFLINTIT, the amyloid nucleation score entry was “inactive”.
ICNIYCCCQG gave an amyloid nucleation score of 2.6 ± 0.069.
As for GYGHVIYLYYCQRHDNPQVQ, the amyloid nucleation score entry is “inactive”.
As for CLGMSFLRRMGTMSAYPTIK, the amyloid nucleation score entry was “inactive”.
To VLVICWFRDDGYSVFLCCQT belongs “inactive”.
To LFIECIRSGDDGCILWETWH belongs “inactive”; to IIGWASWCVGKGHLTFCQLV, “inactive”; to LTQLTIIKTGLTCLMA, “inactive”.
On to SSLIFLFDGKHRVLIYNLSN, for which the amyloid nucleation score was 0.482 ± 0.47.
As to GVRLAWVTSCCRV, the amyloid nucleation score entry is “inactive”.
With WMFGQSIAALFSWGTVCGLV, the amyloid nucleation score result is “inactive”.
To HYLQS belongs “inactive”.
With GVGVMLSYKGIFMHLSFVGE, the amyloid nucleation score entry was “inactive”.
In the case of SWGAWIGLWFRTGVLLDESA, the amyloid nucleation score result was “inactive”.
To DVCEGEIYDPDSLKWFYQFL belongs “inactive”.
Take LNVRAVFIVTRISVSYSRAR: the amyloid nucleation score is 0.081 ± 0.52.
Substance SMANFTAETSDIRINFIVSM yielded an amyloid nucleation score of 0.779 ± 0.14.
For SVLWLN, the amyloid nucleation score result was “inactive”.
To GLSISFTTDFFLKVLSESAR belongs “inactive”; to LIMLFHSWMSTRWYGVVSNS, “inactive”.
Regarding LLLPIS, the amyloid nucleation score result was “inactive”.
To SNCFPLSFWIR belongs -0.88 ± 1.3; to TVGVTYIKVWNVPNILYRGC, 0.769 ± 0.15.
Turning to THGREGYASSSSSLGPGSIS, the amyloid nucleation score was -0.08 ± 0.44.
Consider GRVESSVIYRPLNLGGGQES, for which the amyloid nucleation score result is “inactive”.
RPVSTSYVRLRRVRFSYNLN: the amyloid nucleation score entry was “inactive”.
As to VFFAVF, the amyloid nucleation score result is “inactive”.
With RSVVVLT, the amyloid nucleation score entry is “inactive”.
As to IRTSGSMYIISIWRWVGRTL, the amyloid nucleation score result was “inactive”.
In turn, LYFYNIESLAMIFNMNENLV showed an amyloid nucleation score of 2.31 ± 0.058.
In the case of DSQCLVWYIRFAYNERSHRK, the amyloid nucleation score result was “inactive”.
For the substance SAFGTQGYCKSSVFPEASPR, the amyloid nucleation score result is “inactive”.
To KPKELSAHLNATM belongs “inactive”; to FAMMDELRRMWARSACSTRV, “inactive”.
As to DSRKRKVRF, the amyloid nucleation score result was “inactive”.
For the substance RDHMSS, the amyloid nucleation score entry is “inactive”.
For the substance QCSIFIIC, the amyloid nucleation score came out at 2.41 ± 0.076.
Take HVVKSRSGLIMVWRPLL: the amyloid nucleation score is -0.65 ± 1.1.
To IWTLS belongs “inactive”; to WGTRLWIVVQIGQEYVLLVR, -0.234 ± 1.1.
SNHIDAVNHDGHSHPYHTTR: the amyloid nucleation score entry was “inactive”.
Consider TNGLVLHRSWLEFFLYYTQR, for which the amyloid nucleation score entry is “inactive”.
On to KMSSHFV, for which the amyloid nucleation score entry was “inactive”.
STLRSLCRPSGFGVAI: the amyloid nucleation score result is “inactive”.
To ECTSF belongs “inactive”; to RLYLNSFSHQNSCPRDLDGL, 0.969 ± 0.1.
Take YRDRYLDPLWAD: the amyloid nucleation score entry is “inactive”.
With FANYGEKIWCFGAMLGKRLS, the amyloid nucleation score result is “inactive”.
To NFFITTDPPGFR belongs “inactive”.
On to SNVGSDDTFLVLLHSHSRSG, for which the amyloid nucleation score amounted to 0.72 ± 0.49.
Take PFNRVVVHSDAARGCRPCRP: the amyloid nucleation score result was “inactive”.
Take LRASFWECLCCCVVR: the amyloid nucleation score turned out to be 2.33 ± 0.073.
To VLGSRVKGDYCRCLEMECIW belongs “inactive”.
RRRLG: the amyloid nucleation score entry is “inactive”.
In the case of IEQGGI, the amyloid nucleation score result was “inactive”.
SSGPLALVL: the amyloid nucleation score result is “inactive”.
To IMVVQYTWDWPGCCWIRWYL belongs “inactive”; to MLLCMILPK, 2.26 ± 0.078.
SWPVCWDHIWQSWGLTTSAV: the amyloid nucleation score entry was “inactive”.
To GWWVRHSWGDGSVASVCIKM belongs “inactive”; to GFPPCSTRTIQLTWHSSNV, 0.37 ± 0.17.
With NDVSRNLSMFNY, the amyloid nucleation score result was “inactive”.
On to FKVWCVLSADIQF, for which the amyloid nucleation score result was “inactive”.
RPFSPVVLMVYGKKRRTWTR: the amyloid nucleation score entry was “inactive”.
In turn, LFQKKFILQVYNCLFSYYFN had an amyloid nucleation score of 1.18 ± 0.096.
Take SGCDLLFFYYHRRTVPLANW: the amyloid nucleation score entry is “inactive”.
Regarding SFDQNRRVVIFVSPHSEGMR, the amyloid nucleation score entry is “inactive”.
SMCRTPILQPIAVQNVSMGR: the amyloid nucleation score result was “inactive”.
With DITRGCGVKDRKVVPASGLA, the amyloid nucleation score entry is “inactive”.
On to NKSWWKYVPIDDGELYMRAV, for which the amyloid nucleation score result is “inactive”.
Consider SHRGDAVLVFCLVCLVILDG, for which the amyloid nucleation score entry was “inactive”.
To CTKWGGVSVISCQLAVSAKI belongs “inactive”; to HFMFGYGCTRSGQTRSPGFN, 1.88 ± 0.11.
To RRYIRSVNCKQWDYKFLMYS belongs “inactive”; to TFVVSVMHKCAW, 1.18 ± 0.11; to RGVNKRKADVTRGCYSVVLN, “inactive”.
As to RNIRYLTLYQVTYLGRRRT, the amyloid nucleation score stood at 2.25 ± 0.093.
As to WARIYKMLIF, the amyloid nucleation score result was “inactive”.
With VLDFRRPRNISRS, the amyloid nucleation score result was “inactive”.
To WHAFRLMWDSNMLLLRGSVV belongs “inactive”; to VNVTIGIYKRHRYLWSGIAM, “inactive”.
On to GNIAYSVLMWSDCKTCQCDV, for which the amyloid nucleation score was determined as 1.82 ± 0.058.
To HVNLIDTKNSLMQMLN belongs “inactive”.
Turning to VARSSQSISSMHMTMRYKCA, the amyloid nucleation score entry was “inactive”.
As to IHYPKCVAGLCSRSLCTAVV, the amyloid nucleation score result is “inactive”.
To YNHSMGWVCSAFDAKVRILR belongs “inactive”; to ALPPSVF, “inactive”; to DSYYFPRQGWMY, “inactive”.
To SNFLGNQRMLRSAQIPRMRL belongs “inactive”.
Take SPWYLNVAIGTAKGCLSFID: the amyloid nucleation score result is “inactive”.
RIRMSCYLIVYIGIACGYIS: the amyloid nucleation score result is “inactive”.
Regarding RWWKKTIQIFKCFVKHLEWG, the amyloid nucleation score result is “inactive”.
Consider YRILRRYSDPAHEDIKRCTL, for which the amyloid nucleation score entry is “inactive”.
In the case of VKFVCKAELLDLT, the amyloid nucleation score entry is “inactive”.
Substance PRFYANRFTVLFLYNLDI came in with an amyloid nucleation score of -0.227 ± 1.1.
Regarding RDVIRRVVRMHLQLYMFMVG, the amyloid nucleation score is -0.135 ± 0.98.
Take NDASYDLRRWWCKTAPGLSG: the amyloid nucleation score result was “inactive”.
With ILWFMDGMIRSRGVPLGDGC, the amyloid nucleation score entry is “inactive”.
Turning to NWDMAFNYNLTAFSPKGTNS, the amyloid nucleation score result was “inactive”.
Consider RSKEMNVKASKNSMVHVSEV, for which the amyloid nucleation score result was “inactive”.
To MKGCWFWKVIENFHIKSHCR belongs “inactive”; to KFSCINVDPMHYSNSWTT, “inactive”; to QDYTWVFEVSWAPKGGNLNV, “inactive”.
To CEWNS belongs “inactive”; to WELSRYVRGLLFEFTLCLFV, “inactive”.
For RGSCEFSSLECDTWSNRPSD, the amyloid nucleation score result is “inactive”.
On to FLCSTSLFVLVLMLTLTNTP, for which the amyloid nucleation score entry was “inactive”.
For the substance VACRVVGNSSVWVFRRHVEN, the amyloid nucleation score entry was “inactive”.
Consider SSSRCITLLVSIMVPISATC, for which the amyloid nucleation score result was “inactive”.
Turning to YFENLVEVRQIATFKTV, the amyloid nucleation score result is “inactive”.
Take CMRYVGSPDNRHWASGKGIP: the amyloid nucleation score entry is “inactive”.
To YPNDLTRVFDRDNNLLGTHG belongs 0.551 ± 0.32; to QSNEASCSGCLISKVLKNDN, “inactive”; to DTVMGSCDEFYLFASRHLCL, “inactive”.
To FFLYSNIFQLS belongs 2.32 ± 0.092.
Turning to ENNRCYYKMF, the amyloid nucleation score result was “inactive”.
Regarding CFRPPFTFRYFALARGKAAD, the amyloid nucleation score entry is “inactive”.
Turning to YYLCYLSVHLSMIGCKEKGR, the amyloid nucleation score result was “inactive”.
With RQLVNCQGFVLYTREMDFEA, the amyloid nucleation score result was “inactive”.
In the case of NFTGSCVPVIRQMASCFSSF, the amyloid nucleation score result was “inactive”.
Take SVVRVCSSCIVDYRMCESK: the amyloid nucleation score was 0.927 ± 0.14.
Turning to GFLKCVGVRLDDSRGVVCAT, the amyloid nucleation score entry is “inactive”.
As for VMDVEIGSASSLYKRTSTSE, the amyloid nucleation score result is “inactive”.
Turning to IFNLMFYFVVRNE, the amyloid nucleation score came out at 3.01 ± 0.071.
As for MIGVSRLCNRRIF, the amyloid nucleation score result is “inactive”.
Take CCACWGINHSYGLSTEVSQY: the amyloid nucleation score result is “inactive”.
On to NCSGQTGFGPVMSYWTIDVR, for which the amyloid nucleation score is -0.022 ± 0.59.
To SFNCPNAWSVYLL belongs “inactive”; to DDDHKIKLLLSGGL, “inactive”.
